Results reported in patent US20160152721A1 (Novartis, published 2016).
“And” between values parts separate entries of the source, which are not always exact repeats. Identical values can stand only once.

B1: Chir12.12 (antibody, human IgG1, kappa)
heavy: not shown
light: DIVMTQSPLSLTVTPGEPASISCRSSQSLLYSNGYNYLDWYLQKPGQSPQVLISLGSNRASGVPDRFSGSGSGTDFTLKISRVEAEDVGVYYCMQARQTPFTFGPGTKVDIRRTVAAPSVFIFPPSDEQLKSGTASVVCLLNNFYPREAKVQWKVDNALQSGNSQESVTEQDSKDSTYSLSSTLTLSKADYEKHKVYACEVTHQGLSSPVTKSFNRGEC
notes: also called Chir12.12 (wt Fc); parental anti-CD40 antibody
B2: mAb1 (antibody, human IgG1, kappa, N297A)
heavy: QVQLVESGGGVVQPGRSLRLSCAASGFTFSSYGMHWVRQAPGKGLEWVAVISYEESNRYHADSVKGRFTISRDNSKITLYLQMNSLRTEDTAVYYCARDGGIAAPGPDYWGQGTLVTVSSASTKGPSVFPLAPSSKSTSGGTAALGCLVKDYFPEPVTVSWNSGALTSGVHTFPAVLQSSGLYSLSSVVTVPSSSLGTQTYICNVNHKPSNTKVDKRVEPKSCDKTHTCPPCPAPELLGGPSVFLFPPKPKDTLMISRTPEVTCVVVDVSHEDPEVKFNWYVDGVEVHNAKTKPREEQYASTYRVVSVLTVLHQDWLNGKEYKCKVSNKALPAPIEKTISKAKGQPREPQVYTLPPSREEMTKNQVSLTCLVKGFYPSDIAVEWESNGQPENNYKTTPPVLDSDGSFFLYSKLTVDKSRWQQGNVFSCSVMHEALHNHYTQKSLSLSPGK
light: B1 light
notes: Fc-silent IgG1 variant of Chir12.12 with N297A (aglycosylated); same VH/VL as Chir12.12; also called mAb1 (N297A)
B3: mAb2 (antibody, human IgG1, kappa)
heavy: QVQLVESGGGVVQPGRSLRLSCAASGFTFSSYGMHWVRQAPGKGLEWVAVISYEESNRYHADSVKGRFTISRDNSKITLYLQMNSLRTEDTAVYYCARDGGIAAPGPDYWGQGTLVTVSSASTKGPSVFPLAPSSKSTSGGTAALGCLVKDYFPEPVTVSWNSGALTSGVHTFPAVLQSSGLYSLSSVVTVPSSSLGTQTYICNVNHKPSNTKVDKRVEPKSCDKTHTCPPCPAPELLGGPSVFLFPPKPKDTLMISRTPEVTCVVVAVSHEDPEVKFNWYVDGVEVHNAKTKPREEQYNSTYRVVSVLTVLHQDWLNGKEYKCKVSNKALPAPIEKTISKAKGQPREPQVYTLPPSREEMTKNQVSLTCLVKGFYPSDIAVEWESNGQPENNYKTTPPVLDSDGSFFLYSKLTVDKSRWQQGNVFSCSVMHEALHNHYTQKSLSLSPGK
light: B1 light
notes: Fc-silent IgG1 variant of Chir12.12 with D265A; same VH/VL as Chir12.12; also called mAb2 (D265A)
B4: mAb3 (antibody, human IgG1, kappa, L234A L235A)
heavy: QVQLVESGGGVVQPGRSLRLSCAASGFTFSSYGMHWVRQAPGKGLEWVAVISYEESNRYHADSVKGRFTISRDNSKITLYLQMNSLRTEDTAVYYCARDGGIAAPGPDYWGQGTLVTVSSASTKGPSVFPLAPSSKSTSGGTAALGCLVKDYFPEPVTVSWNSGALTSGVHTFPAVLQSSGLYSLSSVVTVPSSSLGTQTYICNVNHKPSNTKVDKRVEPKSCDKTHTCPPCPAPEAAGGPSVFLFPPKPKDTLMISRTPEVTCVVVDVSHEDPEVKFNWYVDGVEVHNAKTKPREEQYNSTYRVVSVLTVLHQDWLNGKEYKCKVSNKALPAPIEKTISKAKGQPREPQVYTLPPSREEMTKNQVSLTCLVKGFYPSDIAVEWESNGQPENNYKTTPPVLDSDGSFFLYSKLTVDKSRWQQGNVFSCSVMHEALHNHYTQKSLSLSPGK
light: B1 light
notes: IgG1 variant of Chir12.12 with L234A/L235A; same VH/VL as Chir12.12; also called mAb3 (LALA); LALA mutant

How the values were obtained:
[1] = biological target: T1, human CD40 on cells (BJAB B cell line, human PBMCs, CD20+ B cells, tonsil B cells, monocyte-derived dendritic … (human, UniProt P25942 21-277)); assay: cell-based or functional assay
T1 sequence (P25942 21-277 limits assumed): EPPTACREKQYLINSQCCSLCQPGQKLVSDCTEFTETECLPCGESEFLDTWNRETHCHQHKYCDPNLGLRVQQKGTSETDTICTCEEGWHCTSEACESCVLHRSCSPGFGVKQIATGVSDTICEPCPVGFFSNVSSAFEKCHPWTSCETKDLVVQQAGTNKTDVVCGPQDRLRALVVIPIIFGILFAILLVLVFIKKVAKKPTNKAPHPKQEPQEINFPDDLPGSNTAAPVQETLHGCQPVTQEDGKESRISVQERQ

[2] = biological target: T1, human CD40 on cells (BJAB B cell line, …); assay: cell-based or functional assay; remark: listed apart in the source
[3] = biological target: T1, human CD40 on cells (BJAB B cell line, …); assay: cell-based or functional assay; remark: listed apart in the source
[4] = biological target: human CD40 (Biacore antigen) (human, UniProt P25942 21-193, limits assumed); assay: Biacore (SPR); format not described
Sequence of human CD40 (Biacore antigen) (P25942 21-193 limits assumed): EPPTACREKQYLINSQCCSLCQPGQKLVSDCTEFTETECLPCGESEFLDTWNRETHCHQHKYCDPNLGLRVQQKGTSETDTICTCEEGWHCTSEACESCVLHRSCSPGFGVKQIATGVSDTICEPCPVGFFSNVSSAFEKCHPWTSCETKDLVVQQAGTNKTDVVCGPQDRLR

[5] = biological target: T1, human CD40 on cells (BJAB B cell line, …); assay: flow cytometry on BJAB cells, normalized median fluorescence [left panel (Experiment 68_09]
Description: (§1) Flow cytometry was used, in order to compare the binding of the different anti-CD40 antibody Fc variants in their binding to human BJAB cells. Therefore, 2×10⁵ cells were seeded per well in a 96-well V-bottom plate. The plates were washed twice with 200 μL of FACS buffer (PBS, 5% FCS, 2 mM EDTA) for 2 min at 4° C. at 1350×g. Supernatants were discarded and cells were resuspended in […] FACS buffer containing 8% human serum (InVitromex, Cat. No. S4190) and incubated for 10 min. After two washes anti-human CD40 Fc variants were added in 50 μL FACS buffer with 1% human serum starting at a concentration of 10 μg/mL in a 1:2 dilution. Cells were incubated for 30 min on ice followed by two washing steps. 50 μL of polyclonal rabbit anti-human IgG FITC, F(ab′)2 (DAKO, Cat. No. F 0315) were added to each well and incubated for 30 min on ice. At the end of the incubation cells were washed twice, resuspended in 100 μL FACS buffer and acquired on a FACS Cantoll.
(§2) After acquisition the mean fluorescence intensity of the FITC channel was acquired in FloJo.Graphing and curve fitting was performed with GraphPad Prism 5.0. Due to changing intensities between individual experiments, values were normalized. Therefore, the highest value of each antibody test series was equaled 100%. Non-linear curve fittings were performed with the percent values.
(§3) To compare the curves of the different experiments, the highest median fluorescence intensity of each individual dose-titration was set to 100% binding and a non-linear curve fitting was applied. […] No changes in the binding capabilities of the variants could be observed with the different mutations of the Fc binding region of Chir12.12.

[6] = biological target: T1, human CD40 on cells (BJAB B cell line, …); assay: flow cytometry on BJAB cells, normalized median fluorescence [right panel (Experiment 72_09]
Description: as §1, §2, §3

[7] = biological target: T1, human CD40 on cells (BJAB B cell line, …); assay: cell-based or functional assay; remark: listed apart in the source
[8] = biological target: T2, Rhesus CD40 on CD20+ B cells / PBMCs (Rhesus, UniProt F6SNI1 21-278); assay: cell-based or functional assay
T2 sequence (F6SNI1 entry or part of it limits assumed): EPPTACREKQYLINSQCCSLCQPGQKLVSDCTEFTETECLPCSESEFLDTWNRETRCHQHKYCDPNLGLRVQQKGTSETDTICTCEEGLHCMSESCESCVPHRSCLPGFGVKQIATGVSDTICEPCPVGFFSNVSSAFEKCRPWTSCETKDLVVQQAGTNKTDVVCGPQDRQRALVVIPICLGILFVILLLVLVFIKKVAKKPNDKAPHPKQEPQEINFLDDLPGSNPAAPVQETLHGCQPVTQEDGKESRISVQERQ

[9] = biological target: T3, Cynomolgus CD40 on CD20+ B cells / PBMCs (Cynomolgus, UniProt G7PG38 21-278); assay: cell-based or functional assay
T3 sequence (G7PG38 entry or part of it limits assumed): as the sequence (F6SNI1 entry or part of it limits assumed) above, with R70Q, M92T, A207V, L220P counted along it

[10] = biological target: T1, human CD40 on cells (BJAB B cell line, …); assay: cell-based or functional assay; remark: listed apart in the source
[11] = biological target: T2, Rhesus CD40 on CD20+ B cells / PBMCs; assay: cell-based or functional assay; remark: listed apart in the source
[12] = biological target: T1, human CD40 on cells (BJAB B cell line, …); assay: flow cytometry on human CD20+ B cells
Description: (§4) PBMCs (rhesus, cynomolgus or human) or tonsil B cells (human only) were incubated at 4° C. for 30 min with purified labeled mAb1 or isotype control antibodies in dose response (final concentration range 2.5 μg/ml-0.00125 μg/ml). Cells were subsequently washed prior to being incubated with an anti-human (non-human primate cross-reactive) and a biotinylated anti-human IgG antibody with minimal cross-reactivity to NHPs (R10; note that it was possible to distinguish membrane IgG expressing human B cells either by including an anti-IgM stain or via differential intensity of FACS staining). Cells were again incubated at 4° C. for 30 min prior to being washed and subject to final staining with streptavidin-FITC for 20 min at 4° C. Cells were subsequently washed and evaluation of CD40 expression on CD20+ cells was performed by flow cytometry.

[13] = biological target: T3, Cynomolgus CD40 on CD20+ B cells / PBMCs; assay: flow cytometry on Cynomolgus CD20+ B cells
Description: as §4

[14] = biological target: T2, Rhesus CD40 on CD20+ B cells / PBMCs; assay: flow cytometry on Rhesus CD20+ B cells (n = 6)
Description: as §4

| Binder | IC50 for inhibition of CD40L-mediated proliferation of PBMCs [1] [µg/mL] | IC50 for the inhibition of TNF alpha release from human MoDCs stimulated with MegaCD40L, average [2] [µg/mL] | IC50 for the inhibition of TNF alpha release from human MoDCs stimulated with MegaCD40L, experiment #2 [2] [µg/mL] | IC50 for the inhibition of TNF alpha release from human MoDCs stimulated with MegaCD40L, experiment #3 [2] [µg/mL] | Agonist activity on huPBMCs (EC50, ng/ml) [3] [ng/mL] | CD40L inhibition - huPBMCs (IC50, ng/ml) [3] [ng/mL] | Kd [4] [nM] | EC50 (read off the curve) [5] [µg/mL] | EC50 (read off the curve) [6] [µg/mL] | IC50 for the inhibition of TNF alpha release from human MoDCs stimulated with MegaCD40L, experiment #1 [2] [µg/mL] | CD154 inhibition (IC50, µg/ml), CD154+IL-4 induced proliferation of human tonsil B cells [7] | CD154 inhibition (IC50, µg/ml), CD154+IL-4 induced proliferation of Rhesus PBMCs (n = 6) [8] [µg/mL] | CD154 inhibition (IC50, µg/ml), CD154+IL-4 induced proliferation of Cynomolgus PBMCs [9] | IC50 in the functional inhibition test (soluble CD154 + IL4-induced proliferation, human tonsil B cells) [10] [µg/mL] | IC50 in the functional inhibition test (soluble CD154 + IL4-induced proliferation, rhesus PBMCs) [11] [µg/mL] | EC50 [12] | EC50 [13] | EC50 [14] [µg/mL] |
| --- | --- | --- | --- | --- | --- | --- | --- | --- | --- | --- | --- | --- | --- | --- | --- | --- | --- | --- |
| B1 | 0.176 | 0.036 | 0.041 | 0.03 | > 10000 | 13 | 0.55 | ~0.1 | ~0.3 | – | – | – | – | – | – | – | – | – |
| B2 | 0.058 | 0.04 | 0.044 | 0.058 | > 10000 | 15 | 0.69 | ~0.3 | ~0.5 | 0.023 | 0.058 µg/mL and 0.075 µg/mL | 0.03 | 0.015 µg/mL and 0.02 µg/mL | 0.067 | 0.0255 | 0.26 µg/mL and 0.28 µg/mL | 0.3 µg/mL and 0.24 µg/mL | 0.22 |
| B3 | 0.146 | 0.033 | 0.012 | 0.042 | > 10000 | 17 | 0.49 | – | – | 0.041 | – | – | – | – | – | – | – | – |
| B4 | 0.118 | 0.032 | 0.008 | 0.047 | > 10000 | 15 | 0.33 | ~0.1 | ~0.2 | 0.039 | – | – | – | – | – | – | – | – |
